From the Immune Epitope Database (IEDB) come the findings set out here.

A value given as a limit tells only on which side of the number the result lay.

Assay [1] addresses HLA-B*18:01. The assay can be described thus: IEDB peptide-MHC binding, purified MHC/competitive/radioactivity; filed as Kd, often an IC50 or EC50 that approximates it; ≥ and ≤ were set here for values at or beyond the usual limits of such assays.
Assay [2] has as its target HLA-B*40:02. The description is as above.
The target in assay [3] is HLA-B*44:03. Described as above.
In assay [4] the target is HLA-B*44:02. Described as above.
Assay [5] deals with HLA-B*45:01. Described as above.
Assay [6] has as its target HLA-B*40:01. The description is as above.
Assay [7] has as its target HLA-B*54:01. Described as above.
The target of assay [8] is HLA-B*51:01. Described as above.
Assay [9] concerns the target HLA-B*35:01. The assay is described as above.
Assay [10] addresses HLA-B*07:02. The description is as above.
The target in assay [11] is HLA-B*53:01. Described as above.
Assay [12] deals with HLA-A*02:01. The description is as above.
For assay [13], the target named is HLA-A*02:06. Described as above.
Assay [14] deals with HLA-A*68:02. The description is as above.
For assay [15], the target named is HLA-A*02:01. The assay can be described thus: IEDB peptide-MHC binding, purified MHC/direct/fluorescence; filed as Kd, often an IC50 or EC50 that approximates it; ≥ and ≤ were set here for values at or beyond the usual limits of such assays. Particulars: source organism: SARS-CoV1.
In assay [16] the target is HLA-A*69:01. The assay is described as above. Conditions: source organism: SARS-CoV1.
Assay [17] has as its target HLA-B*07:02. The description is as above. Particulars: source organism: SARS-CoV1.
The target in assay [18] is HLA-A*02:03. In words: IEDB peptide-MHC binding, purified MHC/competitive/radioactivity; filed as Kd, often an IC50 or EC50 that approximates it; ≥ and ≤ were set here for values at or beyond the usual limits of such assays. Conditions: source organism: Trypanosoma cruzi.
The target of assay [19] is HLA-A*02:02. Described as above. Particulars: source organism: Trypanosoma cruzi.
The mark [20] stands for this setting: source organism: SARS coronavirus Tor2.
[21] abbreviates: source organism: Mammarenavirus guanaritoense.
The mark [22] stands for this setting: source organism: Triticum aestivum.
Where [23] appears, read: source organism: Vaccinia virus WR.
[24] abbreviates: source organism: Mammarenavirus mopeiaense.
Setting [25] is: source organism: Mammarenavirus brazilense.
[26] abbreviates: source organism: Trypanosoma cruzi.

A word on the Kd: it is the equilibrium constant for the complex coming apart. Regarding LEDFKPRSQM, the Kd was at least 37800 nM in assay [1] (setting [20]); 21.7 nM in assay [2] (setting [20]); 1010 nM in [3] (setting [20]); 622 nM in assay [4] (setting [20]); 17700 nM in assay [5] (setting [20]); 1520 nM in assay [6] (setting [20]).
As for YDYYRYNLPT, the Kd is at least 70500 nM in [1] (setting [20]); at least 36500 nM in [2] (setting [20]); at least 20900 nM in assay [3] (setting [20]); at least 24800 nM in assay [4] (setting [20]); 15100 nM in assay [5] (setting [20]); at least 69600 nM in assay [6] (setting [20]).
Take PDFELLLSL: the Kd in assay [1] (setting [21]) was 701 nM; in assay [2] (setting [21]) it was 2.18 nM; in [3] (setting [21]), at least 35800 nM; in [4] (setting [21]) it was 7830 nM; in assay [5] (setting [21]) it was at least 38100 nM; in assay [6] (setting [21]), 14600 nM.
Regarding IPPYCTIAPV, the Kd in assay [7] (setting [22]) was 90.5 nM; in assay [8] (setting [22]) it was at least 30000 nM; in [9] (setting [22]), at least 30400 nM; in assay [10] (setting [22]) it was 940 nM; in assay [11] (setting [22]), at least 69900 nM.
With TLENERGEL, the results for the Kd in [12] (source organism: Homo sapiens), in [13] (source organism: Homo sapiens) and in [14] (source organism: Homo sapiens) were at least 28600 nM, at least 45600 nM and at least 21500 nM, respectively.
In the case of TPNYMKLLVY, the Kd is 14600 nM in [7] (setting [23]); at least 28600 nM in assay [8] (setting [23]); 48.1 nM in assay [9] (setting [23]); at least 47800 nM in assay [10] (setting [23]); 952 nM in [11] (setting [23]).
As for YEGNSPFHPL, the Kd is 12300 nM in assay [1] (setting [20]); 12.2 nM in assay [2] (setting [20]); 16800 nM in assay [3] (setting [20]); 8100 nM in assay [4] (setting [20]); at least 42700 nM in assay [5] (setting [20]); 46.2 nM in assay [6] (setting [20]).
As for PELLNNQFGT, the Kd in [1] (setting [24]) was 16200 nM; in assay [2] (setting [24]) it was at least 27200 nM; in assay [3] (setting [24]), at least 69700 nM; in assay [4] (setting [24]), at least 70200 nM; in [5] (setting [24]), at least 70000 nM; in assay [6] (setting [24]) it was at least 69500 nM.
Turning to RERVNINIVG, the Kd in assay [1] (setting [20]) is at least 70500 nM; in assay [2] (setting [20]) it was 143 nM; in [3] (setting [20]) it was 6740 nM; in assay [4] (setting [20]) it was 7900 nM; in [5] (setting [20]), 1630 nM; in assay [6] (setting [20]), 4910 nM.
In the case of SEYDYVIFT, the Kd is 3270 nM in assay [1] (setting [20]); 34 nM in assay [2] (setting [20]); 25.1 nM in assay [3] (setting [20]); 125 nM in assay [4] (setting [20]); 11.4 nM in assay [5] (setting [20]); 998 nM in assay [6] (setting [20]).
Turning to SDHLLSEML, the Kd in assay [1] (setting [25]) is at least 77500 nM; in [2] (setting [25]), 2260 nM; in assay [3] (setting [25]), at least 78100 nM; in assay [4] (setting [25]) it was at least 26900 nM; in [5] (setting [25]), at least 77700 nM; in assay [6] (setting [25]), 5290 nM.
Take IDYDCVSFCY: the Kd is 3000 nM in assay [1] (setting [20]); at least 38500 nM in [2] (setting [20]); 759 nM in assay [3] (setting [20]); 1550 nM in [4] (setting [20]); 5800 nM in assay [5] (setting [20]); 10500 nM in assay [6] (setting [20]).
With MPASWVMRI, the Kd in assay [15] was 8190 nM; in assay [16], 17 nM; in assay [17] it was 508 nM; in assay [7] (setting [20]), 32 nM; in assay [8] (setting [20]) it was 67.1 nM; in assay [9] (setting [20]), 206 nM. The Kd in assay [11] (setting [20]) is 1.24 nM.
In the case of LLGLWGLAAL, the Kd was 50.7 nM in assay [12] (setting [26]); 144 nM in [13] (setting [26]); 5820 nM in assay [14] (setting [26]); 9.38 nM in assay [18]; 4 nM in [19].
